Data published in publication PMC7948415.

Columns and labels:
[1] = target: properdin (human) (UniProt P27918); assay: SPR; Biacore T100; properdin amine-coupled to a CM5 chip (5000 RU); C3b (20 μg/ml), factor B (20 μg/ml) and factor D (2 μg/ml) in HBS/MgCl2 injected at 30 μl/min for 120 s without or with SG7.AF, albicin or anophensin (Fig. 9C: 56.8 nM C3b, 107.5 nM factor B, 41.7 nM factor D, inhibitors 1 μM); dissociation at 1 μM inhibitor fitted to a double exponential decay
[2] = target: variant of anophensin with the N-terminus extended by the retention of three amino acids from the signal peptide (Anopheles stephensi) (UniProt A5HUP6); assay: crystal structure; lengthened anophensin, space group P2_(1)2_(1)2, three monomers in the asymmetric unit, SAD with a selenomethionine derivative

properdin (human), sequence (P27918 28-469): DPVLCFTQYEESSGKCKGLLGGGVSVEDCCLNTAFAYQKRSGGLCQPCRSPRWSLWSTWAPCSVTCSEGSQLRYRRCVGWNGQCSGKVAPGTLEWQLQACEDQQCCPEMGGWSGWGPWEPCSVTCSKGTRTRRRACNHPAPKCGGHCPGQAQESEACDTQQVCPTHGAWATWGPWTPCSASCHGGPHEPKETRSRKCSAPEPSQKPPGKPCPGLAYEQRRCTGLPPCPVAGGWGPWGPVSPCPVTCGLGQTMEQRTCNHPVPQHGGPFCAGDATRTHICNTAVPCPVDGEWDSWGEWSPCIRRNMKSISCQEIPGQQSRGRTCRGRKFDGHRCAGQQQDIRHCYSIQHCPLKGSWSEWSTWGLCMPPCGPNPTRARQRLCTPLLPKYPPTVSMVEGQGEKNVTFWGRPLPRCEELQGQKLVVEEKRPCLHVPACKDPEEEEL

Substance	koff, fast phase of a double exponential decay [1]	koff, slow phase of a double exponential decay [1]	stoichiometry N [2]
SG7.AF-bound C3bBb complex (from UniProt P01024 749-1663; P01024 749-1663; P00751 260-764; C0HMB5 1-119)	0.02 s⁻¹	0.003 s⁻¹	–
albicin-bound C3bBb complex (from UniProt P01024 749-1663; P01024 749-1663; P00751 260-764; A0A1Y9G8D0 27-142)	0.02 s⁻¹	0.003 s⁻¹	–
variant of anophensin with the N-terminus extended by the retention of three amino acids from the signal peptide (from UniProt A5HUP6 28-142) (natural protein)	–	–	2
